The target in assay [1] is T1, MLO-Y4 cell surface proteins (Mus musculus, UniProt Q3U2P1).
T1 construct: endogenous in cells; host or cells: MLO-Y4
T1 sequence (Q3U2P1 1-1090): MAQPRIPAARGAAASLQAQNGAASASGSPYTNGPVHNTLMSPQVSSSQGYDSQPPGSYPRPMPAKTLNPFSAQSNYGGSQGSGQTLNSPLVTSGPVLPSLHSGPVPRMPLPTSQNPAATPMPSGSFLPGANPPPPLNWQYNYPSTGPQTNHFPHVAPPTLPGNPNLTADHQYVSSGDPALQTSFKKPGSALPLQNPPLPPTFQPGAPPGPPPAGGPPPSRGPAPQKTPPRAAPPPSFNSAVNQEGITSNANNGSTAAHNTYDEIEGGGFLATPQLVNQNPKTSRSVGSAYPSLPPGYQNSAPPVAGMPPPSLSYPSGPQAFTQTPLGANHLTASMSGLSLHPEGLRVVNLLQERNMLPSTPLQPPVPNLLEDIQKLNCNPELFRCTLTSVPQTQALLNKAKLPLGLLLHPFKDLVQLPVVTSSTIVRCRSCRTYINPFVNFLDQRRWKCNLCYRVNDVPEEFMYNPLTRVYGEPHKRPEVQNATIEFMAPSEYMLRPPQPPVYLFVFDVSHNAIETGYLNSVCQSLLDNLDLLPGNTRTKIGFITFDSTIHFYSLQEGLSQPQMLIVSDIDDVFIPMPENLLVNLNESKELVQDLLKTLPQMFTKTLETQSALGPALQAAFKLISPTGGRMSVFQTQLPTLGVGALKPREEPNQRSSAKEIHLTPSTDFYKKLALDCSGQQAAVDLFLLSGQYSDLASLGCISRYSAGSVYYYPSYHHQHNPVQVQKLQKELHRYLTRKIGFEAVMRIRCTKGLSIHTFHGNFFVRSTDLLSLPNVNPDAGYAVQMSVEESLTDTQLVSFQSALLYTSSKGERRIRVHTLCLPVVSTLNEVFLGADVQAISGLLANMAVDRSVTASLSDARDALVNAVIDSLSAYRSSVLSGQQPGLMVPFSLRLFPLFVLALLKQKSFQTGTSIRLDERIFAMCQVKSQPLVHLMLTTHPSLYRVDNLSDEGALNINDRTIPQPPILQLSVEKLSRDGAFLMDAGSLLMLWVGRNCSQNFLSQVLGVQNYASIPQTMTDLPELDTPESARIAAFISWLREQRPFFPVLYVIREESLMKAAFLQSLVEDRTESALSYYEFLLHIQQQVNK
Kind of assay: Crosslinking/co-immunoprecipitation/mass spectrometry (TMT quantitative proteomics) to identify irisin receptors. Type of assay: binding. As to conditions: co-precipitated protein Sec24a (SC24A_MOUSE). The method in brief:
(§1)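 Mouse MLO-Y4 cells were switched to serum-free FreeStyle medium for 4 h, chilled, then exposed to 10 nM His-tagged irisin (or adipsin as control) for 20 min. Cells were crosslinked with 1.5 mM DTSSP (30 min, ice), and bound proteins were pulled down on Ni-NTA and eluted with 250 mM imidazole. Eluates were separated by SDS-PAGE, trypsin-digested in gel, TMT 6-plex labelled and quantified by MS3-based LC-MS/MS on an Orbitrap Fusion Lumos.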

The target in assay [2] is T2, MLO-Y4 cell surface proteins (Mus musculus, UniProt P60843).
T2 construct: endogenous in cells; host or cells: MLO-Y4
The description is as above. The class given is binding. The note with it: co-precipitated protein Eif4a1 (IF4A1_MOUSE). The method in brief:
as §1

T2 sequence (P60843 whole entry): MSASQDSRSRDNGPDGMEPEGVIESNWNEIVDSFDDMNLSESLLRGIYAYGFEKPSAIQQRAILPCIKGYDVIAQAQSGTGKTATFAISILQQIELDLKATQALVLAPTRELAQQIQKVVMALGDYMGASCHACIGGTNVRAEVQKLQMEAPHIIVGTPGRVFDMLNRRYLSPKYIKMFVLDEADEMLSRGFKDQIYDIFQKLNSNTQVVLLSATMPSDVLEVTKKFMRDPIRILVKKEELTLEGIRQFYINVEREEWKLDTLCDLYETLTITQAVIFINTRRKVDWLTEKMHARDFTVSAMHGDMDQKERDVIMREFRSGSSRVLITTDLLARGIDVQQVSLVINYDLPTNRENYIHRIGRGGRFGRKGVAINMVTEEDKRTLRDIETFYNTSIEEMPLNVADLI

As to adipsin, the TMT signal-to-noise ratio in assay [1] is listed as 118.999; in assay [2], 136.49.

Values taken from patent publication US20210063414A1, “METHODS FOR PREVENTING AND/OR TREATING BONE LOSS CONDITIONS BY MODULATING IRISIN” (Dana-Farber Cancer Institute, Inc., priority 2018, published 2021).
